According to article PMC8684725 (Molecular Biology of the Cell, 2021):

B1: WNK1SA (WNK1/S382A), WNK1 (194-483) S382A, unphosphorylated kinase domain (domain or fragment)
chain: not shown
B2: unphosphorylated kinase domain of WNK3, WNK3 (118-409) (domain or fragment)
chain: not shown

Legend:
crystal structure = target: the molecule itself; assay: crystal structure
static light scattering = target: the molecule itself; assay: static light scattering

| Protein | binding result (crystal structure) | stoichiometry N (static light scattering) |
| --- | --- | --- |
| B1 | binds | – |
| B2 | – | 2 |
